Laboratory results reported in publication PMC5434554, “Structural similarities and functional differences clarify evolutionary relationships between tRNA healing enzymes and the myelin enzyme CNPase” (BMC Biochemistry, 2017).

B1: ScTrl1 CPDase (Saccharomyces cerevisiae S288C) (protein)
chain: GQADSSLTNAKQILNEIHKAYPILVPEIPKDDEIETAFRRSLDYKPTVRKIVGKGNNNQQKTPKLIKPTYISAKIENYDEIIELVKRCIASDAELTEKFKHLLASGKVQKELHITLGHVMSSREKEAKKLWKSYCNRYTDQITEYNNNRIENAQGSGNNQNTQVKTTDKLNFRLEKLCWDEKIIAIVVELSKDKDGCIIDENNEKIKGLCCQNKIPHITLCKLESGVKAVYSNVLCEKVESAEVDENIKVVKLDNSKEFVGSVYLNF
B2: ScTrl1 PNK/CPDase (Saccharomyces cerevisiae S288C) (protein)
chain: RTKFLIFPISVIGCGKTTTSQTLVNLFPDSWGHIQNDDITGKDKSQLMKKSLELLSKKEIKCVIVDRNNHQFRERKQLFEWLNELKEDYLVYDTNIKVIGVSFAPYDKLSEIRDITLQRVIKRGNNHQSIKWDELGEKKVVGIMNGFLKRYQPVNLDKSPDNMFDLMIELDFGQADSSLTNAKQILNEIHKAYPILVPEIPKDDEIETAFRRSLDYKPTVRKIVGKGNNNQQKTPKLIKPTYISAKIENYDEIIELVKRCIASDAELTEKFKHLLASGKVQKELHITLGHVMSSREKEAKKLWKSYCNRYTDQITEYNNNRIENAQGSGNNQNTQVKTTDKLNFRLEKLCWDEKIIAIVVELSKDKDGCIIDENNEKIKGLCCQNKIPHITLCKLESGVKAVYSNVLCEKVESAEVDENIKVVKLDNSKEFVGSVYLNF

Substrate: NC(=O)c1ccc[n+]([C@@H]2O[C@H](COP(=O)(O)OP(=O)(O)OC[C@H]3O[C@@H](n4cnc5c(N)ncnc54)[C@@H]4OP(=O)(O)O[C@@H]43)[C@@H](O)[C@H]2O)c1
Assay: purified protein
Conditions: 100 mM MES pH 6.0, 3 mM MgCl2, 5 mM glucose-6-phosphate, 25 °C, CPDase site

Row | Protein | Km | kcat | kcat/Km
1 | B1 | 237 ± 27 µM | 275 s⁻¹ | 1.16e+06 M⁻¹ s⁻¹
2 | B2 | 420 ± 35 µM | 317 s⁻¹ | 750000 M⁻¹ s⁻¹
